The source of these data is US20050164933A1.

No end group written: not given here. *: point of attachment. Biotin = O=C1N[C@H]2[C@H](CS[C@H]2CCCCC(=O)*)N1

Common to all, as to test: G3 assay titration, immobilised GST-PDZ
Assay [1] deals with T1, GST-INADL PDZ domain 3 fusion protein (human), Q8NI35.
T1 chain: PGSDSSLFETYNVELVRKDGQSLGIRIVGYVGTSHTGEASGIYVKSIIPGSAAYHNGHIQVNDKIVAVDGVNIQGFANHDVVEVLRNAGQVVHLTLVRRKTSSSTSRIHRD

Assay [2] has as its target T2, GST-ZO-1 PDZ domain 2 fusion protein (human).
T2 chain: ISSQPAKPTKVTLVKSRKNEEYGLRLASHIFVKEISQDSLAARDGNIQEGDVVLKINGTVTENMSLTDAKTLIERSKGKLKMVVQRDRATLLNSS

Assay [3] concerns the target T3, GST-TIP1 PDZ domain 1 fusion protein (human), O14907.
T3 chain: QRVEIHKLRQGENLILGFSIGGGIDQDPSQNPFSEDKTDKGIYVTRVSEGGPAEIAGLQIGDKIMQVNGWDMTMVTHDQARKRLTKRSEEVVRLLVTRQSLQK

Assay [4] concerns the target T4, GST-KIAA1284 PDZ domain 1 fusion protein (human), Q9ULD6.
T4 chain: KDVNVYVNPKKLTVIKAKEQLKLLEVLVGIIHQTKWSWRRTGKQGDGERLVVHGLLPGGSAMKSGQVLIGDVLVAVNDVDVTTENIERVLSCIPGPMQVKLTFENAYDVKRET

Assay [5] addresses T5, GST-LIM mystique PDZ domain 1 fusion protein (human), Q96JY6.
T5 chain: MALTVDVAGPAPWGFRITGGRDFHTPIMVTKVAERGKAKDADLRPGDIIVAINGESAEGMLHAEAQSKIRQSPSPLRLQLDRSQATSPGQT

Assay [6] concerns the target T6, GST-MAST2 PDZ domain 1 fusion protein (human), Q6P0Q8.
T6 chain: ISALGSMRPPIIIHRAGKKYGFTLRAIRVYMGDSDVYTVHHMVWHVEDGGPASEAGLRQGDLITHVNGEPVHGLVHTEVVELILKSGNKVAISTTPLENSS

The target of assay [7] is T7, GST-MINT1 PDZ domain 1 fusion protein (human).
T7 chain: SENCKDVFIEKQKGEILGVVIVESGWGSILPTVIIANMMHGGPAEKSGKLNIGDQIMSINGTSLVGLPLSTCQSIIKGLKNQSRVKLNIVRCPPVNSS

Assay [8] addresses T8, GST-MINT1 PDZ domain 2 fusion protein (human).
T8 chain: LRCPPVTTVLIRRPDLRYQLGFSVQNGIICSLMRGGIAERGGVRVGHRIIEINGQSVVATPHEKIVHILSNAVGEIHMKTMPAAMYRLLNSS

The target in assay [9] is T9, GST-MINT1 PDZ domains 1,2 fusion protein (human).
T9 chain: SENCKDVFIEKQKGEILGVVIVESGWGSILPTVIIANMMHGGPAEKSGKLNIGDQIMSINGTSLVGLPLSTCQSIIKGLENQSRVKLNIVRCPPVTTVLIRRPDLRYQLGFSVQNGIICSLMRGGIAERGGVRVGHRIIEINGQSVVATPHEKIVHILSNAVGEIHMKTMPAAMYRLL

The target of assay [10] is T10, GST-MUPP1 PDZ domain 3 fusion protein (human), O75970.
T10 chain: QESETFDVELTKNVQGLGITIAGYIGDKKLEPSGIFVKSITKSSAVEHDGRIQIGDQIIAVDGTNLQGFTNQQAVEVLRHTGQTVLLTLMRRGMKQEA

In assay [11] the target is GST-PAR3 PDZ domain 3 fusion protein (human), Q8TEW0.
For assay [12], the target named is GST-PAR3L PDZ domain 3 fusion protein (human), Q8TEW8.
Assay [13] concerns the target T11, GST-RIM2 PDZ domain 1 fusion protein (human).
T11 chain: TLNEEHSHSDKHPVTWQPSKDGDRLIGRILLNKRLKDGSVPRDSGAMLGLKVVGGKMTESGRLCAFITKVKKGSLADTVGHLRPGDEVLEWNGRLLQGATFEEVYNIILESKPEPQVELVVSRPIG

Assay [14] has as its target T12, GST-SITAC 18 PDZ domain 1 fusion protein (human), Q9H190.
T12 chain: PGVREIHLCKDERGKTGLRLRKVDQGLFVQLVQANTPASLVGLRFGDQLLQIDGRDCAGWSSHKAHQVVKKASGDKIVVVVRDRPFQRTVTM

For assay [15], the target named is T13, GST-SITAC 18 PDZ domain 2 fusion protein (human), Q9H190.
T13 chain: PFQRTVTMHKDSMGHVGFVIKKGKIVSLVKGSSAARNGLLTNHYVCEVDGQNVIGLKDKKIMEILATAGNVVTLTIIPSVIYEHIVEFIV

Assay [16] concerns the target T14, GST-Syntrophin 1 alpha PDZ domain 1 fusion protein (human), Q13424.
T14 chain: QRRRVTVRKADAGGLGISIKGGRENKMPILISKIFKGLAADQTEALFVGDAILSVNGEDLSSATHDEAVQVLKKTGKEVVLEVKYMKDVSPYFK

Sequence of GST-PAR3L PDZ domain 3 fusion protein (human), Q8TEW8 (Q8TEW8 other isoform, or with tags, fused parts or gaps): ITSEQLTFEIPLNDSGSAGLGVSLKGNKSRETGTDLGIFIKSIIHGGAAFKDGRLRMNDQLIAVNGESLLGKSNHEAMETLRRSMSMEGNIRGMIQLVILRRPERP
Sequence of GST-PAR3 PDZ domain 3 fusion protein (human), Q8TEW0 (Q8TEW0 other isoform, or with tags, fused parts or gaps): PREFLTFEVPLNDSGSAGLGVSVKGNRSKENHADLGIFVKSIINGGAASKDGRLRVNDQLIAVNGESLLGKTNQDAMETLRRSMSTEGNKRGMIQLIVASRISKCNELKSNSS

Usually EC50 stands for the concentration giving half of the maximal effect. A lower EC50 goes with an effect from little substance. Consider Biotin-YGRKKRRQRRRARGDRLVSL [Peptide #1843 (biotin-…)], for which the EC50 in assay [1] was less than 2000 nM; in assay [2], 17 nM. Besides, the ODmax (450 nm) in [1] was found to be 1.2 OD 450 nm; in assay [2], 2.2 OD 450 nm.
Regarding Biotin-YGRKKRRQRRRSRTDRKYQI [Peptide #1839 (biotin-…)], in assay [1], the EC50 stood at 130 nM and the ODmax (450 nm) was found to be 1.6 OD 450 nm. Moreover, in [2], the half-maximal effective concentration (EC50) is less than 20 nM and the ODmax (450 nm) stood at 2.5 OD 450 nm.
For Biotin-YGRKKRRQRRRARSDRTIWA [Peptide #1829 (biotin-…)], in assay [1], the ODmax (450 nm) was found to be 1.4 OD 450 nm. In assay [2], this molecule yielded an EC50 of 7 nM and an ODmax (450 nm) of 2.9 OD 450 nm.
On to Biotin-YGRKKRRQRRRARSDRTIIA [Peptide #1830 (biotin-…)], for which, in [1], the EC50 is less than 2000 nM and the ODmax (450 nm) came out at 1.2 OD 450 nm. Also, in assay [2], the EC50 is less than 20 nM and the ODmax (450 nm) was 1.8 OD 450 nm.
In assay [3], Biotin-YGRKKRRQRRREKHFRETEV [Peptide #AA353 (biotin-…)] had an EC50 of less than 2 nM and an ODmax (450 nm) of 3 OD 450 nm.
Consider YGRKKRRQRRRSTNSVRLML (not fully specified), for which the EC50 in assay [1] was 120 nM; in [5], 90 nM; in assay [6], 110 nM; in [8], less than 2000 nM; in assay [9], 180 nM; in assay [10] it was 290 nM. In addition, the EC50 in assay [11] was 18 nM; in [12] it was 100 nM; in assay [13] it was 47 nM; in assay [14], less than 1000 nM; in assay [15], 90 nM; in assay [16] it was 160 nM. Besides, the EC50 in assay [3] was less than 1000 nM; in assay [2] it was 33 nM. Moreover, the ODmax (450 nm) in assay [1] worked out at 1.9 OD 450 nm; in [4], 0.63 OD 450 nm; in assay [5] it was 2.1 OD 450 nm; in [6] it was 2.1 OD 450 nm; in assay [7] it was 0.33 OD 450 nm; in assay [8], 0.76 OD 450 nm. In addition, the ODmax (450 nm) turned out to be 1.9 OD 450 nm in assay [9]; 2.06 OD 450 nm in [10]; 2.5 OD 450 nm in assay [11]; 1.97 OD 450 nm in assay [12]; 2.1 OD 450 nm in assay [13]; 1.7 OD 450 nm in assay [14]. Also, the ODmax (450 nm) in assay [15] stood at 1.95 OD 450 nm; in [16], 2.05 OD 450 nm; in assay [3], 1.82 OD 450 nm; in assay [2], 2.2 OD 450 nm.
In assay [1], Biotin-YGRKKRRQRRRARGTRLVWV [Peptide #1844 (biotin-…)] had an EC50 of less than 20 nM and an ODmax (450 nm) of 2.4 OD 450 nm. In addition, in [2], the EC50 was less than 20 nM and the ODmax (450 nm) is 2.6 OD 450 nm.
In assay [1], Biotin-YGRKKRRQRRRARGDRKYIV [Peptide #1838 (biotin-…)] showed an EC50 of less than 100 nM and an ODmax (450 nm) of 2.6 OD 450 nm. In assay [2], the EC50 was less than 100 nM and the ODmax (450 nm) stood at 2.6 OD 450 nm.
Consider Biotin-YGRKKRRQRRRSRTDRKYWA [Peptide #1832 (biotin-…)], for which, in assay [1], the EC50 came out at 200 nM and the ODmax (450 nm) is 0.6 OD 450 nm. In assay [2], this molecule gave an EC50 of less than 20 nM and an ODmax (450 nm) of 2.1 OD 450 nm.
Biotin-YGRKKRRQRRRARGRRETWV [Peptide #1854 (biotin-…)]: in [1], the EC50 is less than 20 nM and the ODmax (450 nm) turned out to be 2.1 OD 450 nm. The same molecule returned an ODmax (450 nm) in assay [2] of 2.8 OD 450 nm.
With Biotin-YGRKKRRQRRRARGDRYRIV [Peptide #1845 (biotin-…)], in assay [1], the half-maximal effective concentration (EC50) was less than 100 nM and the ODmax (450 nm) came to 2.2 OD 450 nm. For the same molecule, in assay [2], the EC50 is less than 100 nM and the ODmax (450 nm) amounted to 2.3 OD 450 nm.
In assay [1], Biotin-YGRKKRRQRRRARGDRTIIY [Peptide #1848 (biotin-…)] returned an EC50 of less than 2000 nM and an ODmax (450 nm) of 1.2 OD 450 nm. In [2], this molecule had an EC50 of less than 20 nM and an ODmax (450 nm) of 2.2 OD 450 nm.
The like results for Biotin-YGRKKRRQRRRQDERRLIVL [Peptide #1842 (biotin-…)] were, in that order, less than 1000 nM, 1.9 OD 450 nm, 35 nM and 2.3 OD 450 nm.
In assay [1], Biotin-YGRKKRRQRRRARTDRKVEV [Peptide #1837 (biotin-…)] had an ODmax (450 nm) of 0.37 OD 450 nm. Besides, in [2], the EC50 was less than 20 nM and the ODmax (450 nm) was determined as 1.8 OD 450 nm.
For Biotin-YGRKKRRQRRRARGDRKIRV [Peptide #1836 (biotin-…)], in that order: 0.3 OD 450 nm, less than 10 nM and 2.6 OD 450 nm.
